From the Human Domainome abundance scans (Beltran et al. 2025)

B1: RAS guanyl-releasing protein 1, residues 539 to 593; numbered along this chain, O95267 (parent)
chain: GFPHNFQETTYLKPTFCDNCAGFLWGVIKQGYRCKDCGMNCHKQCKDLVVFECKK

Variants of: B1
Experiment: abundance fitness (aPCA) (normalised: wild type 0, dead -1); higher = more abundant; growth selection in yeast, the domain comes from the species named
Settings: Homo sapiens

Abundance fitness: each site, then its substitutions
M39: G -0.097 | T -0.142 | W -0.157 | A -0.111 | C -0.455 | Q -0.032 | D -0.242 | N -0.15 | R -0.143 | P -1.03 | L -0.122 | I -0.115 | F -0.158 | Y -0.1 | K -0.079 | V -0.111
H42: P -0.859 | A -0.841 | K -0.849 | W -0.286 | G -0.249 | L -1.09 | Q -0.862 | I -0.939 | V -1.09 | Y -0.892 | F -0.981 | C -0.416 | T -0.921 | M -0.76 | S -0.319 | R -0.916 | N -0.815
Q44: A 0.011
R33: Y -0.402
G38: E 0.077 | W -0.109 | A 0.032 | I -0.453 | M -0.095 | N 0.062 | T -0.282 | D -0.003 | Q -0.281 | C -0.095 | F -0.071 | Y -0.514 | S -0.02 | P -0.081 | L -0.075
C34: L -0.915 | H -0.809 | I -0.724 | W -0.891 | V -0.723 | Y -0.922 | T -0.776 | S -0.947 | F -0.729 | R -0.954 | M -0.649 | K -0.886 | A -0.81 | D -0.269 | Q -0.924 | G -0.951
C41: T -0.035 | V 0.068 | D -0.758 | N -0.47 | F -0.331 | K -0.139 | L -0.023 | W -0.191 | E -0.414 | Q -0.484 | Y 0.02 | A -0.016 | M -0.281 | H -0.662 | I -0.012
K43: W -0.481 | S -0.006 | C -0.053 | N -0.417 | G -0.074 | I 0.232 | E -0.002 | P -0.146 | A -0.049 | L -0.066 | R -0.094 | F -0.24 | D 0.011 | M -0.031 | T -0.024
D36: Q -0.209 | G 0.118 | R -0.055 | H -0.148 | C -0.245 | K -0.139 | Y -0.296 | A -0.146 | P -0.2 | M -0.09 | I -0.028 | W -0.041 | S -0.028 | V -0.289 | F -0.108 | L -0.051 | E -0.021 | N -0.006 | T -0.02
K35: T -0.022 | M -0.266 | Q 0.1 | A 0.041 | D -0.096 | F -0.193 | G -0.118 | S -0.026 | R -0.004 | L 0.021 | V -0.135 | P -0.134 | Y 0.024 | H -0.029 | I -0.009 | C -0.13 | E 0.039 | W -0.19 | N -0.297
N40: R -0.142 | E -0.082 | Y -0.285 | Q -0.02 | H -0.127 | V -0.063 | L -0.349 | M -0.087 | K -0.17 | A -0.081 | P -0.144 | D -0.023 | T -0.042 | I -0.093 | C -0.137 | G -0.08
C37: R -0.879 | G -1.14 | M -0.904 | Y -0.708 | W -0.607 | S -0.625 | T -0.427 | F -0.924 | L -0.953 | K -0.933 | D -0.864 | P -1.07 | N -0.824 | Q -0.87 | V -0.959 | A -1.25 | E -0.967
